Target: VHH ALc-B8 expressed as thioredoxin fusion protein (alpaca)
Experiment: SPR

## recombinant BoNT/A protease (light chain), amino acids 1–448 of BoNT/A holotoxin (from UniProt P0DPI1 1-448) (enzyme)
  Kd: 1.06 nM

From article PMC2946066
